The source of these data is article doi:10.1101/2021.01.25.428038 (bioRxiv, 2021).

The data set concerns the molecule itself. Briefly: bead aggregation assay.

B1: hTMIGD1-Fc (extracellular domain of hTMIGD1, AA 1-222, fused to the Fc-part of human IgG) (Fc fusion)
chain: VLTVNGKTENYILDTTPGSQASLICAVQNHTREEELLWYREEGRVDLKSGNKINSSSVCVSSISENDNGISFTCRLGRDQSVSVSVVLNVTFPPLLSGNDFQTVEEGSNVKLVCNVKANPQAQMMWYKNSSLLDLEKSRHQIQQTSESFQLSITKVEKPDNGTYSCIAKSSLKTESLDFHLIVKDKTVGVPIE
Regarding B1, the binding result is reported as “binds”.
